T1: Dcc1 C-terminus WT (Saccharomyces cerevisiae, UniProt P25559 90-380)
T1 sequence: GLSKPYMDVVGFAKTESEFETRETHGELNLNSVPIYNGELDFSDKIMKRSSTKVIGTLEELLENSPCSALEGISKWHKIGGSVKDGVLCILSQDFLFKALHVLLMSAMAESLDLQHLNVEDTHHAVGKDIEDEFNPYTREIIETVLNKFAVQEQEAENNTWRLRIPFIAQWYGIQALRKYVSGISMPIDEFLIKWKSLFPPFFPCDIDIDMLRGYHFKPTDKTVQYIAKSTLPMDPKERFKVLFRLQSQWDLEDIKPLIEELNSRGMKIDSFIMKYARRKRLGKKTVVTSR

B1: 22-mer dsDNA (dsDNA)
DNA 1: TCTCCACAGGAAACGGAGGGGT
DNA 2: ACCCCTCCGTTTCCTGTGGAGA

Biological target: T1, Dcc1 C-terminus WT
Assay: EMSA; 1 uM DNA; EMSA, 6% native gel in 0.5x TBE, 4 C, DNA 1 uM unless stated; binding buffer, salt and pH not stated (protein storage 10 mM Tris pH 7.5, 150 mM NaCl, 0.5 mM TCEP for the complex)
Settings: protein: recombinant, tags: expressed by the complex protocol

| Binder | binding result (label: 5' 6-FAM) | binding result (label: 5' 6-FAM on sense strand) |
| --- | --- | --- |
| TTTTTTTTTTTTTTTTTTTTTTTTT (ssDNA) [25-mer oligo d(T)] | binds | – |
| B1 | – | binds |
